According to patent publication US20250313625A1 (ELPISCIENCE SUZHOU BIOPHARMA, published 2025):

Tests used:
[1] = molecular target: T1, mFc tagged human LAG3 ECD recombinant protein (human, UniProt P18627 23-450); experiment: competitive ELISA: mFc tagged human LAG3 ECD binding to plate coated LSECtin ECD
T1 construct: extracellular domain; purchased from Biointron; not shown: mouse IgG Fc (mFc) tag
T1 sequence (looked up): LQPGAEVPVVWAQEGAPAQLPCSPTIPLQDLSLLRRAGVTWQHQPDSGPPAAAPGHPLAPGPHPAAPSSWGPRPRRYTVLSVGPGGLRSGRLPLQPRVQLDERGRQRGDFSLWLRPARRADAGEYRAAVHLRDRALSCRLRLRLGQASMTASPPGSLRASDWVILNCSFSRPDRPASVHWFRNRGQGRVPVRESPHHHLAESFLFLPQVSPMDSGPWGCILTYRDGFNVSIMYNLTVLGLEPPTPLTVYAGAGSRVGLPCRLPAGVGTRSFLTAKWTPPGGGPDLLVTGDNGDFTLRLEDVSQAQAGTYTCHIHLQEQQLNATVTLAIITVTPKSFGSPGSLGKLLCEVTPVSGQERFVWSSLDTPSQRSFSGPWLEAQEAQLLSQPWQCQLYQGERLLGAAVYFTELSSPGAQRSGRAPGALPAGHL
Experimental: Activity of the purified chimeric antibodies to block LAG3 and LSECtin interaction was determined by competitive ELISA assay. […] After washing, HRP labeled anti-mouse Fc 2nd antibody (Sigma) was added and incubated at 37° C. for 1 hour. Then, 100 μl/well of TMB solution (Biotechnology) was added. After incubation for 15 minutes at room temperature, the reaction was stopped by the addition of 50 μl of 1N HCl. OD 450 nm was read.

[2] = molecular target: T2, human LAG3, full length, stably expressed on cells (human, UniProt P18627 23-525); experiment: FACS on 293F cells stably expressing human LAG3
T2 construct: whole, on cells; also called CHOK1-human LAG3
T2 sequence (looked up): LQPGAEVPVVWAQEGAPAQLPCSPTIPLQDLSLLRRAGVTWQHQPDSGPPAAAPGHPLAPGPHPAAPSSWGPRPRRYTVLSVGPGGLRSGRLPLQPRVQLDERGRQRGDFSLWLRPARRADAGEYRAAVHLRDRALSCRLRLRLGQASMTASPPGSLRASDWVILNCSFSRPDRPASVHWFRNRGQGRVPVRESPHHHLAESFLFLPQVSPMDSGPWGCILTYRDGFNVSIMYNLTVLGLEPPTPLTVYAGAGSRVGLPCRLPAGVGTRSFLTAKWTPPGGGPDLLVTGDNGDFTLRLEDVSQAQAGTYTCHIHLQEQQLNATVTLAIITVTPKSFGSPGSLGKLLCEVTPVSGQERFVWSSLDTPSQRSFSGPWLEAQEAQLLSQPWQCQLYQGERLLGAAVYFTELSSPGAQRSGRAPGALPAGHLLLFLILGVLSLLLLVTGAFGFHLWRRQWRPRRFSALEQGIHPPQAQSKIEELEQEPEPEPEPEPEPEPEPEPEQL
Experimental: Briefly the antibodies were incubated with 2×10⁵ target cells at 4° C. for 1 hour. After washing, fluorescence labeled anti-mouse IgG 2nd antibody (Life Technologies) was added and incubated at 4° C. for 1 hour. Geometric median fluorescence intensity (MFI) was detected and EC₅₀ was calculated using GraphPad Prism9.0.
MFI was detected and EC₅₀ was calculated using GraphPad Prism9.0.

[3] = molecular target: T1, mFc tagged human LAG3 ECD recombinant …; experiment: competitive FACS: mFc-LAG3 ECD binding to Raji cells (MHC II)
Experimental: Activity of the purified chimeric antibodies to block LAG3 and MHC II interaction was determined by competitive FACS assay. […] After washing, dye labeled anti-mouse Fc 2nd antibody (Sigma) was added and incubated at 37° C. for 1 hour. Fluorescence intensity was detected.

[4] = molecular target: T3, hFc tagged human LAG3 ECD recombinant protein (human, UniProt P18627 23-450); experiment: competitive ELISA format II: biotin hFc-LAG3 ECD binding to coated His-FGL1
T3 construct: range 23-450; also called biotin labelled hFc tagged human LAG3 ECD; not shown: human IgG Fc tag
T3 sequence (looked up): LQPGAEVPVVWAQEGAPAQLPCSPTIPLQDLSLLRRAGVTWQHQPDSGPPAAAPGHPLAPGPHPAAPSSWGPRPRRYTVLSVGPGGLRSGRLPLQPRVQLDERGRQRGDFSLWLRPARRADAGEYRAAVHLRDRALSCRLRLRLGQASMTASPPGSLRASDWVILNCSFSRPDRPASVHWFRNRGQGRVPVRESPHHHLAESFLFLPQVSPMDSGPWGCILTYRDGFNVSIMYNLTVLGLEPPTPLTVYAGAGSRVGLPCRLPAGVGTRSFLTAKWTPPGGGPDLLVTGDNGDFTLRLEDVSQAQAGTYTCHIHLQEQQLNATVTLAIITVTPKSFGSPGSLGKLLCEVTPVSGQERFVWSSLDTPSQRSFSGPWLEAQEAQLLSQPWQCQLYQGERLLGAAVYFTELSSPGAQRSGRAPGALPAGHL

[5] = molecular target: T3, hFc tagged human LAG3 ECD recombinant …; experiment: competitive ELISA format II: biotin labeled hFc tagged LAG3 ECD binding to plate coated His tagged human FGL1; 023c run beside 027c and 047c
Experimental: After washing, HRP labeled anti-His 2nd antibody (Sigma) was added and incubated at 37° C. for 1 hour. Then, 100 μl/well of TMB solution (Biotechnology) was added. After incubation for 15 minutes at room temperature, the reaction was stopped by the addition of 50 μl of 1N HCl. OD 450 nm was read. […] After washing, HRP labeled anti-SA 2nd antibody (Sigma) was added and incubated at 37° C. for 1 hour. Then, 100 μl/well of TMB solution (Biotechnology) was added. After incubation for 15 minutes at room temperature, the reaction was stopped by the addition of 50 μl of 1N HCl. OD 450 nm was read. […] The competition assay of format III is a competitive FACS assay. […] After washing, dye labeled anti-His 2nd antibody (Sigma) was added and incubated at 37° C. for 1 hour. Fluorescence intensity was detected.

[6] = molecular target: T4, human LAG3 (form used in Octet, Biacore and HDX-MS not given) (human, UniProt P18627 23-450, limits assumed); experiment: BLI (Octet), 1:1 fit
T4 sequence (looked up): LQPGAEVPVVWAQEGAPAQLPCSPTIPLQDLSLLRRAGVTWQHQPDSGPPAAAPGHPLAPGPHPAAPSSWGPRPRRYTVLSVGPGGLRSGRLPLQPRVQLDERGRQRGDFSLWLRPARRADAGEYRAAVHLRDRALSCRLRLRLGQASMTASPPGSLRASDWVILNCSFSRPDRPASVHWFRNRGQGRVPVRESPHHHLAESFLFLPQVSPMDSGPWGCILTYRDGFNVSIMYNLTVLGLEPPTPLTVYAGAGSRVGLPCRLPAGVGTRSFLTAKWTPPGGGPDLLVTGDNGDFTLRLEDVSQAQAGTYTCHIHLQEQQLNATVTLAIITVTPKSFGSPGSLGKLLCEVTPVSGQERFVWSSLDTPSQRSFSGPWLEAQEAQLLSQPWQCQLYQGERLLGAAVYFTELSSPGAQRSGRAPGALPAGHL
Experimental: The purified chimeric antibodies were characterized for binding affinity against human LAG3 using Bio-Layer Interferometry technology (Octet system). The association and dissociation curves were fit with 1:1 binding model, and the Ka/Kd/KD values for each antibody were calculated.

%Blocking at 4 nM [1]: 27.8%
%Blocking at 20 nM [1]: 94.4%
%Blocking at 100 nM [1]: 94.8%
EC50 [2]: 1.3 nM
TOP MFI [2]: 387
IC50 [3]: 3.7 nM
TOP blocking (%) [3]: 94.6%
IC50 [4]: 1.47 nM
TOP blocking (%) [4]: 86.8%
IC50 (read off the curve) [5]: ~0.3 µg/mL
Kd [6]: 0.648 nM
koff [6]: 0.000233 s⁻¹
kon [6]: 359000 M⁻¹ s⁻¹
B1: 023c (antibody, human IgG4, V domains shown)
VH: QIQLVQSGPVLKKPGETVKISCKASGYTFTESPMNWVKQAPGRGFKWMGMIYTDTGEPTYAEEFKGRFAFSLETSASTAYLQINNLKSEDTATYFCVSDYGSILYWYFDVWGTGTTVTVSS
VL: DIVMTQSHKFMSTSVGDRVSITCKASQDVSTAVAWYQQTPGQSPKLLIYSASYRYTGVPDRFTGSGSGTDFTFTISSVQAEDLAVYYCQQHYNSPPTFGAGTKLELK
notes: human IgG4 S228P / kappa chimeric antibody; also called chimeric antibody 023; ES005-023c; not shown: human kappa light chain constant region (pcDNA3.4-hIgGk vector)
